Source: US9266964

B1: M12-B04 (Fab, V domains shown)
VH: EVQLLESGGGLVQPGGSLRLSCAASGFTFSLYSMYWVRQAPGKGLEWVSRIRPSGGGTVYADSVKGRFTISRDNSKNTLYLQMNSLRAEDTAVYYCARDPLYSSGDVWGQGTTVTVSS
VL: DIQMTQSPSSLSASVGDRVTITCRASQGIRNDLGWYQHKPGKAPKLLIYAASILQSGVPSRFSGTASGTDFTLTISSLQPEDFATYFCLQDYEYPLTFGGGTKLDIK
notes: Fab fragment (E. coli TG1); printed HC runs into the start of CH1
B2: M27-F04 (Fab, V domains shown)
VH: EVQLLESGGGLVQPGGSLRLSCAASGFTFSWYPMTWVRQAPGKGLEWVSSIGPSGGQTIYADSVKGRFTISRDNSKNTLYLQMNSLRAEDTAVYYCTTEYGDYGGGFDPWGQGTLVTVSS
VL: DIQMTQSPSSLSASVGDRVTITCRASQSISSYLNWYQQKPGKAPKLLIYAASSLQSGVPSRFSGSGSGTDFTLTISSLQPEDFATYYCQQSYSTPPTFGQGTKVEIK
notes: as for B1
B3: M11-G12 (Fab, V domains shown)
VH: EVQLLESGGGLVQPGGSLRLSCAASGFTFSQYPMNWVRQAPGKGLEWVSSISSSGGFTTYADSVKGRFTISRDNSKNTLYLQMNSLRAEDTAVYYCAREEQQGGFDYWGQGTLVTVSS
VL: DIQMTQSPSSLSAFVGDRVSITCRASQTISVYVNWYQHKSGQAPKLLIYGASSLQSGVPSRFSGSGSGTDFTLTISSLQPEDFATYFCQQSYSIPFTFGGGTDVQIR
notes: as for B1
B4: M12-D10 (Fab, V domains shown)
VH: EVQLLESGGGLVQPGGSLRLSCAASGFTFSNYPMDWVRQAPGKGLEWVSSISSSGGWTNYADSVKGRFTISRDNSKNTLYLQMNSLRAEDTAVYYCATDTSGSYLGFDYWGQGTLVTVSS
VL: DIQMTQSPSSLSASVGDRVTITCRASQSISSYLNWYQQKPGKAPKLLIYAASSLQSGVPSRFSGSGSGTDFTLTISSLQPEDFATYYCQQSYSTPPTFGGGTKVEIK
notes: as for B1
B5: M27-E03 (Fab, V domains shown)
VH: EVQLLESGGGLVQPGGSLRLSCAASGFTFSSYMMHWVRQAPGKGLEWVSGIYPSGGWTDYADSVKGRFTISRDNSKNTLYLQMNSLRAEDTATYYCARLVAGLDAFDIWGQGTMVTVSS
VL: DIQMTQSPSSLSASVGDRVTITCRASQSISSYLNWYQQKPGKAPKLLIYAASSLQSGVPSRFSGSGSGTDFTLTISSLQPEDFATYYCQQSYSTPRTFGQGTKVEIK
notes: as for B1
B6: M27-B12 (Fab, V domains shown)
VH: EVQLLESGGGLVQPGGSLRLSCAASGFTFSWYQMMWVRQAPGKGLEWVSSISPSGGITEYADSVKGRFTISRDNSKNTLYLQMNSLRAEDTAVYYCARDRSSGWYYYGMDVWGQGTTVTVSS
VL: QYELTQPPAVSVSPGQTATITCSGDKLGDEYAAWYQQKPGQSPVLVIYQDRKRPSGIPERFSGSNFGNTATLTITGTQVMDEADYYCQAWGKRNVVFGGGTKLTVL
notes: as for B1
B7: M11-E04 (Fab, V domains shown)
VH: EVQLLESGGGLVQPGGSLRLSCAASGFTFSMYHMNWVRQAPGKGLEWVSGIVSSGGVTFYADSVKGRFTISRDNSKNTLYLQMNSLRAEDTAVYYCARITTVTTGGAFDIWGQGTMVTVSS
VL: DIQMTQSPSSLSASVGDRVTITCRASQSISIYLTWYQHRPGKAPNLLIYGAATLQTGVPSRFSGSGSGTDFTLTIRGLQPEDFATYYCQQTFSLPRTFGQGTKLEIK
notes: as for B1
B8: M12-A08 (Fab, V domains shown)
VH: EVQLLESGGGLVQPGGSLRLSCAASGFTFSWYYMGWVRQAPGKGLEWVSWIVSSGGLTLYADSVKGRFTISRDNSKNTLYLQMNSLRAEDTAMYYCARTTVTTGDAFDIWGQGTMVTVSS
VL: DIQMTQSPSSLSASVGDRVTITCRASQSISRYLNWYQQKPGKAPKLLIYAASTLETGVPSRFSGSGSGTDFTLTITTLQPEDFVIYYCQQSYSTPYTFGQGTKLEIK
notes: as for B1
B9: M27-A10 (Fab, V domains shown)
VH: EVQLLESGGGLVQPGGSLRLSCAASGFTFSWYRMDWVRQAPGKGLEWVSSIWPSGGLTSYADSVKGRFTISRDNSKNTLYLQMNSLRAEDTAVYYCARGWAPGGDAFDIWGQGTMVTVSS
VL: DIQMTQSPSSLSASVGDRVTITCRASQSISAYLNWYQQKPGKAPQLLMYGVGSLQSGVPSRFSGSGSGTDFTLTISSLQPEDFATYFCQQGYTTPVTFGGGTKVEIK
notes: as for B1
B10: M27-B01 (Fab, V domains shown)
VH: EVQLLESGGGLVQPGGSLRLSCAASGFTFSDYTMWWVRQAPGKGLEWVSSISSSGGITFYADSVKGRFTISRDNSKNTLYLQMNSLRAEDTAVYYCARSADTAMGGAFDIWGQGTMVTVSS
VL: not shown
notes: as for B1
B11: M11-E05 (Fab, V domains shown)
VH: EVQLLESGGGLVQPGGSLRLSCAASGFTFSWYTMGWVRQAPGKGLEWVSWIYFGGLTTYADSVKGRFTISRDNSKNTLYLQMNSLRAEDTAVYYCARLGGPLDAFDIWGQGTMVTVSS
VL: DIQMTQSPSSLSASVGDTVTITCRTSQTINNYLNWYQQRPGEAPKVLIYATHTLESGVPSRFSGSGSGTDFTLTIGSLQPEDFATYYCQQSFAFPYTFGQGTKVEIT
notes: as for B1
B12: M12-C10 (Fab, V domains shown)
VH: EVQLLESGGGLVQPGGSLRLSCAASGFTFSDYEMHWVRQAPGKGLEWVSGISPSGGKTQYADSVKGRFTISRDNSKNTLYLQMNSLRAEDTAVYYCARDLKWGGRGSPDWYFDLWGRGTLVTVSS
VL: QSALTQPPSVSVSPGQTASITCSGDKLGEKYVSWYQQKPGQSPVVVIYQDNKRPSGIPERFSGSNSGNTATLTISGTQAVDEADYYCQAWDSYTVVFGGGSKLTVLG
notes: Fab fragment (E. coli TG1); printed HC runs into the start of CH1 and printed LC into the start of the lambda constant region (GQPK)
B13: M11-E06 (Fab, V domains shown)
VH: EVQLLESGGGLVQPGGSLRLSCAASGFTFSQYAMHWVRQAPGKGLEWVSSIYPSGGFTLYADSVKGRFTISRDNSKNTLYLQMNSLRAEDTAMYYCARGGWLAGGELLNWGQGTLVTVSS
VL: DIQMTQSPSSLSASIGDRVTISCRASRGIGTYLNWYQQHAGKAPKLLIRAASSLETGVPPRFSGSGSGTDFTLTISSLQSDDFATYYCQESFTNVYNFGQGTKLEIK
notes: as for B1
B14: M12-C09 (Fab, V domains shown)
VH: EVQLLESGGGLVQPGGSLRLSCAASGFTFSSYAMVWVRQAPGKGLEWVSSIGSSGGFTLYADSVKGRFTISRDNSKNTLYLQMNSLRAEDTAVYYCASMNLGGGDAFDIWGQGTMVTVSS
VL: DIQMTQSPSSLSASVGDRVTITCRASQSIGIYLNWYHQKPGKAPNLLIYGASSLQSGVPSRFSGSGSGTDFTLTISSLQPGDFATYYCQHSYSTPFTFGGGTKVEIK
notes: Fab fragment (E. coli TG1); printed HC runs into the start of CH1; tied to M12-C09 by its CDRs; also called M12-009
B15: M12-E06 (Fab, V domains shown)
VH: EVQLLESGGGLVQPGGSLRLSCAASGFTFSQYKMLWVRQAPGKGLEWVSGIGPSGGLTAYADSVKGRFTISRDNSKNTLYLQMNSLRAEDTAVYYCARAPWFGELGMDVWGQGTTVTVSS
VL: DIQMTQSPSSLSASVGDRVSITCRASQSISTYLNWYQHKPGKAPTLLIYGAFSLQSGVPSRFSGSGSGTDFALTISSLQPEDFATYYCQQSHSTPPTFGQGTRVEIK
notes: as for B1
B16: M11-G09 (Fab, V domains shown)
VH: EVQLLESGGGLVQPGGSLRLSCAASGFTFSLYNMTWVRQAPGKGLEWVSYIYPSGGGTHYADSVKGRFTISRDNSKNTLYLQMNSLRAEDTAVYYCARDTGFWSADAFDIWGQGTMVTVSS
VL: DIQMTQSPSSLSASVGDRVTITCRTSQGINHYLNWYQQKPGKAPKILVFAASELQTGVPSRFSGTGSGTSYTLTITSLQPEDVATYYCQQTYTSPYTFGQGTKLEVK
notes: as for B1

Biological target: T1, human plasma kallikrein (human, UniProt P03952 20-390; P03952 391-638)
T1 construct: two disulfide-linked chains; also called pKal; human pKal
Assay: ELISA; signal on coated biotinylated human plasma kallikrein divided by signal on streptavidin; Fab
Excerpt: Abbreviations used: "T/B" is the ELISA signal obtained using of the target (biotinylated plasma kallikrein) divided by the ELISA signal of the "background" (streptavidin); both of which were coated on microtiter plates. "nd" is not determined. The symbol "q" refers to the amber suppressible stop codon (TAG), which is translated as glutamine (Q) in strains of E. coli such as the TG1 cells that were used to express the Fab fragments.

T1 sequence (P03952 20-390, chain 1 of 2): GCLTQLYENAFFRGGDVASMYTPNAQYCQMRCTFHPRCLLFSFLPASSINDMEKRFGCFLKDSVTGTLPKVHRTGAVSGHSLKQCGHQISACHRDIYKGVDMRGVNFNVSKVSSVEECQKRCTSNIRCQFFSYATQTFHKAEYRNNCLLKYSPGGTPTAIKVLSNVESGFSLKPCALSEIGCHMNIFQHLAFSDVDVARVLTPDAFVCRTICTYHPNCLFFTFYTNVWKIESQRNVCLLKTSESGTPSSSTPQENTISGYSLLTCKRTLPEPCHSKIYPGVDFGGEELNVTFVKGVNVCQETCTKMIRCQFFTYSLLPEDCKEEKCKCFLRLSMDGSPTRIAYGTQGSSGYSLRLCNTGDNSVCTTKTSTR
T1 sequence (P03952 391-638, chain 2 of 2): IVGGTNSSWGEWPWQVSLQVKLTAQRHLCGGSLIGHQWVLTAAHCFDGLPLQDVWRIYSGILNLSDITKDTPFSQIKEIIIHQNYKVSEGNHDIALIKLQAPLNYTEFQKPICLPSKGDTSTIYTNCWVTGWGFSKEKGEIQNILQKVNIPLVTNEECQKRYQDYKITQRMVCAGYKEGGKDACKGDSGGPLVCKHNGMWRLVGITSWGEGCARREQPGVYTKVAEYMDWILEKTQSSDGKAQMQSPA

Binder | Human pKal ELISA (T/B)
B1 | 18 T/B (target signal / background signal)
B2 | 10.5 T/B (target signal / background signal)
B3 | 4.9 T/B (target signal / background signal)
B4 | 9.9 T/B (target signal / background signal)
B5 | 35.9 T/B (target signal / background signal)
B6 | 2.3 T/B (target signal / background signal)
B7 | 43.2 T/B (target signal / background signal)
B8 | 40.4 T/B (target signal / background signal)
B9 | 3.2 T/B (target signal / background signal)
B10 | 33.1 T/B (target signal / background signal)
B11 | 41.4 T/B (target signal / background signal)
B12 | 8.3 T/B (target signal / background signal)
B13 | 12.6 T/B (target signal / background signal)
B14 | 7 T/B (target signal / background signal)
B15 | 48 T/B (target signal / background signal)
B16 | 23.6 T/B (target signal / background signal)
